From patent US20110231942A1 come the findings set out here.

This test concerns the target Wnt3a. Put plainly: cell-based or functional assay.

The substance “Human Tiki2 (from UniProt A6NFA1 20-486) (enzyme)” yielded a decrease in Wnt3a acylation (metabolic labeling with az-15 and 35S-Met/Cys, click chemistry with ALK-Rho on immunoprecipitated Wnt3a) of 31%.
